Reference: article doi:10.1101/2021.03.23.436578 (bioRxiv, 2021)

Target: the molecule itself
Test: mass photometry

B1: Cavin1 (1-190) (domain or fragment, UniProt O54724 1-190, looked up)
chain: MEDVTLHIVERPYSGFPDASSEGPEPTQGEARATEEPSGTGSDELIKSDQVNGVLVLSLLDKIIGAVDQIQLTQAQLEERQAEMEGAVQSIQGELSKLGKAHATTSNTVSKLLEKVRKVSVNVKTVRGSLERQAGQIKKLEVNEAELLRRRNFKVMIYQDEVKLPAKLSVSKSLKESEALPEKEGDELGE
stoichiometry N: 3
